The source of these data is paper PMC4568394, “Differentially expressed seed aging responsive heat shock protein OsHSP18.2 implicates in seed vigor, longevity and improves germination and seedling establishment under abiotic stress” (Frontiers in Plant Science, 2015).

Usually stoichiometry N stands for a count of units in the complex or per binding partner.

The data set deals with the molecule itself. Put plainly: SEC; Superose 6 column; purified OsHSP18.2 run with molecular weight markers, Ve/Vo against log molecular weight; homooligomer. (In general: In gel filtration, larger molecules generally elute earlier.)

B1: OsHSP18.2, a class II cytosolic small heat shock protein of rice (6X His tagged recombinant) (natural protein, Oryza sativa indica var. PB-1, UniProt Q5VRY1 1-166, looked up)
chain: MESAMFGLETPLMTALQHLLDIPDGEGGAAGKQGATGGPTRAYVRDARAMAATPADVKDLPGAYAFVVDMPGLKSSDIKVQVEEERLLVISGERRRGGGEEEKEESCKYLRMERRMGKFMRKFVLPDNADVDKISAVCQDGVLTVTVEKLPPPEPKKPKTIEVKVA
notes: OsHSP18.2, class II heat shock protein, Oryza sativa indica var; complete ORF / CDS, 166 aa, predicted 18.2 kDa; the indica PB-1 clone may differ from it; pET23b usually adds a C-terminal His6 tag; copies: 12
Consider B1, for which the “stoichiometry N” value is about 12 subunits.
